Assays:
[1] = tested on: MS2 coat protein; experiment: apparent KD of MS2 coat protein, switch OFF state (with FMN for OFF switches, without FMN for ON switches); designed switch direction (-1 OFF switch, 1 ON switch): 1; higher = weaker reporter binding; details: FMN input: 0 or 200 uM; Eterna round: R93 (includes R88 designs)
Outline: (§1)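 Designed RNA switches, transcribed on-chip from Illumina sequencing clusters, were titrated with SNAP-549-labelled MS2 coat protein from 0.7 or 1.5 nM to 3 µM in twofold steps. The solution was 100 mM Tris-HCl pH 7.5, 80 mM KCl, 4 mM MgCl2, with constant ligand or without it. Apparent KD is the median over each design's normalised cluster binding-curve fits.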

[2] = tested on: MS2 coat protein; experiment: apparent KD of MS2 coat protein, switch ON state; designed switch direction (-1 OFF switch, 1 ON switch): 1; higher = weaker reporter binding; details: FMN input: 0 or 200 uM; Eterna round: R93 (includes R88 designs)
Outline: as §1

CUUAGACAUGAGGAUCACCCAUGUCGAACAAACAAAGGAUAUGGGAGCCGAAGACGGCUAUUAGAAGGUUGCAAAA [Anrioned]
apparent KD of MS2 coat protein [1]: 26.4 nM | apparent KD of MS2 coat protein [2]: 28 nM

GUCCAACAUGAGGAUCACCCAUGUGCAUGACACCGAGGAUAUGGGACUAAAGGUGCUGGACCAGAAGGCGGAAGAA [Laceus]
apparent KD of MS2 coat protein [1]: 45.8 nM | apparent KD of MS2 coat protein [2]: 27.1 nM

UUUAAUUGCGGGCAGGAUAUGUAUUAAAAUACAUGAGGAUCACCCAUGUGCGGGUGUAACACCCGACAGAAGGGCCAAUCGCGAC [Bearisan]
apparent KD of MS2 coat protein [1]: 300 nM | apparent KD of MS2 coat protein [2]: 64.7 nM

AUAUAUAUAAGGUAGGAUAUACUAAAGUAAACAUGAGGAUCACCCAUGUAAAGAAAGAAACUCAUGUAGAAGGACCAUAUAUAUA [Original: 77%, More Tesla, 1]
apparent KD of MS2 coat protein [1]: 99.9 nM | apparent KD of MS2 coat protein [2]: 21.3 nM

AUAAAAUAAAAGGAGGAUAUCCUAAAUAAAACAUGAGGAUCACCCAUGUAAAAAAUAAUAAAAUGGGAGAAGGCCUAAAAUAAAU [SS2 M 25]
apparent KD of MS2 coat protein [1]: 35 nM | apparent KD of MS2 coat protein [2]: 16.9 nM

AAAGAAGAAAGACAGGAUAUGGAUGGGUAAACAUGAGGAUCACCCAUGUAUAAGAAAGAAAGAAACCAGAAGGGUCAAAAGAAAA [Darius III]
apparent KD of MS2 coat protein [1]: 551 nM | apparent KD of MS2 coat protein [2]: 42.7 nM

GCAGGGCCACACUAGGAUAUGGGUGUCUAGACAUGAGGAUCACCCAUGUUAUGGCAAAACAAAGCUCAGAAGGAGUCGUGGCCCA [Tizasozaer]
apparent KD of MS2 coat protein [1]: 36 nM | apparent KD of MS2 coat protein [2]: 11.8 nM

GAUAAACAUGAGGAUCACCCAUGUAGAUAUAUGGGAGGAUAUACAAAGACGAUAGUCAAAGUAGAAGGCCUAAAAG [77%, Mat - Mod of Eli - With 3 more U's]
apparent KD of MS2 coat protein [1]: 79.2 nM | apparent KD of MS2 coat protein [2]: 28.6 nM

AUAACAACGUAUGAGGAUAUCCAUAAUAAAACAUGAGGAUCACCCAUGUGAAUAAAAUAACAAUGGGAGAAGGCAUACGUACAAU [SS 2 M 51]
apparent KD of MS2 coat protein [1]: 16 nM | apparent KD of MS2 coat protein [2]: 12.1 nM

GCCUAACAUGAGGAUCACCCAUGUAGUGGGUUGUUAGGAUAUGGGCCGCAUUACGCUGCACCAGAAGGAAUAGAAG [Rasoraer]
apparent KD of MS2 coat protein [1]: 475 nM | apparent KD of MS2 coat protein [2]: 319 nM

AAUAUAUUAAGUGAGGAUAUCGAGAAAAAAACAUGAGGAUCACCCAUGUGGGAAACAUGGUAGGGUGAGAAGGUACUUAAUAUAU [Samwise Clockwise 22 - Jieux - Same State 2]
apparent KD of MS2 coat protein [1]: 399 nM | apparent KD of MS2 coat protein [2]: 270 nM

AUAUGAGCUAUGGAGGAUAUCCAUAACAAGACAUGAGGAUCACCCAUGUAAUCAAAACAAUAAUGGGAGAAGGCCAUAGCUCAAU [SS 2 M47]
apparent KD of MS2 coat protein [1]: 50.9 nM | apparent KD of MS2 coat protein [2]: 76.3 nM

ACAAUACAUGAGGAUCACCCAUGUUAGCUGGGCGAAGGAUAUGUAGAUGGAUAAAAAUAUGCAGAAGGUCGAUAAC [JR_SS001_Sub209]
apparent KD of MS2 coat protein [1]: 109 nM | apparent KD of MS2 coat protein [2]: 68.7 nM

AAAAAAAAAUCACAGGAUAUACAAAAAAAAACAUGAGGAUCACCCAUGUAAAAAAAAAAAAAAAAGUAGAAGGGUGAUCCAAAAAA
apparent KD of MS2 coat protein [1]: 9.28 nM | apparent KD of MS2 coat protein [2]: 12.1 nM

GGAAAACAUGAGGAUCACCCAUGUAGAAAUAUGGGAGGAUAUACAAAGACGAAAGUCAAAGUAGAAGGCCUAAAAG [salish99-SS1-084]
apparent KD of MS2 coat protein [1]: 60.2 nM | apparent KD of MS2 coat protein [2]: 33.9 nM

AAUACACAUGAGGAUCACCCAUGUAGAAACAAGUCAGGAUAUCCGAUCCACAUGUGAUAAGGAGAAGGGACAAUAA [SS 1 Tesla 7]
apparent KD of MS2 coat protein [1]: 163 nM | apparent KD of MS2 coat protein [2]: 25.5 nM

AGAAAUAAAACACAGGAUAUCCAAAAGAAAACAUGAGGAUCACCCAUGUAAAAUAAAAUAAAAUGGGAGAAGGGUGAAAAUAAGA [Mat - Same State 2 - JL mod - D5]
apparent KD of MS2 coat protein [1]: 50.2 nM | apparent KD of MS2 coat protein [2]: 150 nM

Source: the supplement of paper PMC9170038
